T1: 5-HT1A (h) (human), P08908
T1 chain: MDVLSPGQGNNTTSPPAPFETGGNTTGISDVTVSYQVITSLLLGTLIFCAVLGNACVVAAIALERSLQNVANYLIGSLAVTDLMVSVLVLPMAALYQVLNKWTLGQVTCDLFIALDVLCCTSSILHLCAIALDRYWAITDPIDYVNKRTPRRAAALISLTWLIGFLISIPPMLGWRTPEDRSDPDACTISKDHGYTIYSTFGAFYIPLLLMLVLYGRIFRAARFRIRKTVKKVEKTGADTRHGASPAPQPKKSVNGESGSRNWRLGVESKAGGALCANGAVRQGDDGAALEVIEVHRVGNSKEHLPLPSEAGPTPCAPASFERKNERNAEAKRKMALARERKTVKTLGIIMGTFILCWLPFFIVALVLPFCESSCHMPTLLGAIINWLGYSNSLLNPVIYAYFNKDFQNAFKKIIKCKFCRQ

T2: ETA (h) (human), P25101
T2 chain: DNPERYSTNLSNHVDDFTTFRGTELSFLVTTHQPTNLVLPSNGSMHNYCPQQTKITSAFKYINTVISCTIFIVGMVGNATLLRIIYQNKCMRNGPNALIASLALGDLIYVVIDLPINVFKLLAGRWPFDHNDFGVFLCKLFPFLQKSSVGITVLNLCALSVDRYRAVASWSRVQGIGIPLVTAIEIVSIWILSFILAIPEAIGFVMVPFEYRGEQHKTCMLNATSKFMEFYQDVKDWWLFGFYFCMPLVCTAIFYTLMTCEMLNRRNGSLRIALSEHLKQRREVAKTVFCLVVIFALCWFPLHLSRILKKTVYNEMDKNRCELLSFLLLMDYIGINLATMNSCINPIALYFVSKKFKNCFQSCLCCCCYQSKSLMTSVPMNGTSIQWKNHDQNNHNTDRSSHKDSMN

T3: dopamine transporter (h) (human), Q01959
T3 chain: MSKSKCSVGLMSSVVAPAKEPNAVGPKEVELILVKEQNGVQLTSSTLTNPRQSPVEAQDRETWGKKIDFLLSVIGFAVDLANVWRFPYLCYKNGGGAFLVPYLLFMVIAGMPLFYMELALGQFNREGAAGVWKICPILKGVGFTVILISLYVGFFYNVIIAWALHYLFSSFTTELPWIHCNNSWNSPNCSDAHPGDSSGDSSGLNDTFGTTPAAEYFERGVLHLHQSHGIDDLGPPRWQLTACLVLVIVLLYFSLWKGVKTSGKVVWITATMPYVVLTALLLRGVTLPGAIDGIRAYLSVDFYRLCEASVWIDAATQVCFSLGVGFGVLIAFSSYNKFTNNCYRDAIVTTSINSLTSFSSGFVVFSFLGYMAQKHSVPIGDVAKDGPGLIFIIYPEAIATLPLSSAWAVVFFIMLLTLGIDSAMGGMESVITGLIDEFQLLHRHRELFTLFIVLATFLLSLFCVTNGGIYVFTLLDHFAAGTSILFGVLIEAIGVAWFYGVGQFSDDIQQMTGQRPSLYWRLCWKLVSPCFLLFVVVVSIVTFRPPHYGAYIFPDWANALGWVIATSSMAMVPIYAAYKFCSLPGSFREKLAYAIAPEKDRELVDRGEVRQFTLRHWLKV

T4: D2S (h) (human), P14416
T4 chain: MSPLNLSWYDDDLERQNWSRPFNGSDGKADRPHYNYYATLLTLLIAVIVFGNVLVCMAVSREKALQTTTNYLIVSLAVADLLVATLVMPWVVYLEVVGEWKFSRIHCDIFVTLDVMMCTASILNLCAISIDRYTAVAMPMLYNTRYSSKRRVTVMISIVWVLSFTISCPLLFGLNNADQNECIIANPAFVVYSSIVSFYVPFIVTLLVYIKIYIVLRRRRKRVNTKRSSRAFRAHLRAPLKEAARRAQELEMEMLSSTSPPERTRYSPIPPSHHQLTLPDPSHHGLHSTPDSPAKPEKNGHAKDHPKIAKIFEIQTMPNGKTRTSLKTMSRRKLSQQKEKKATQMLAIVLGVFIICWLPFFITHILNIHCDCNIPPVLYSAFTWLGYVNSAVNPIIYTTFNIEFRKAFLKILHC

T5: alpha 2A (h) (human), P08913
T5 chain: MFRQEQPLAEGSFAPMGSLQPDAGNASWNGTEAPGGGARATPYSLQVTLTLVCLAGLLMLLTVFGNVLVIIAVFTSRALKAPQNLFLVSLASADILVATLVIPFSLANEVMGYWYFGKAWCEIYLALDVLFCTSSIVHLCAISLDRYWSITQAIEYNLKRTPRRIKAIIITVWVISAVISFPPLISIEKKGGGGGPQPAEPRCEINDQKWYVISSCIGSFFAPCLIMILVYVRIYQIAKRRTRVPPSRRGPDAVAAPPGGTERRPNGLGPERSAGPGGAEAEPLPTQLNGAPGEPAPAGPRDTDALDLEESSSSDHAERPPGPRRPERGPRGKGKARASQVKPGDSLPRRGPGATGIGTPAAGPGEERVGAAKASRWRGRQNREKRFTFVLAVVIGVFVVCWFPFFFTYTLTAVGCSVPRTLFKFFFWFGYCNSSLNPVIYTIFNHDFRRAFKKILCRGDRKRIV


Assays:
Assay in all cases: radioligand displacement, compound at 10 µM
Conditions in all cases: remark: other sources report otherwise
[1] = molecular target: T1, 5-HT1A (h) (human), P08908
ETA (h) (human), P25101 = molecular target: T2, ETA (h) (human), P25101
[2] = molecular target: beta 1 (h) (human), P08588
[3] = substrate: N neuronal alpha 4beta 2 (h) (human), P43681
[4] = molecular target: T3, dopamine transporter (h) (human), Q01959
D2S (h) (human), P14416 = molecular target: T4, D2S (h) (human), P14416
[5] = molecular target: 5-HT transporter (h) (human), P31645
[6] = molecular target: T5, alpha 2A (h) (human), P08913

% Inhibition of Specific Binding [1] [%]	% Inhibition of Specific Binding (ETA (h) (human), P25101) [%]	% Inhibition of Specific Binding [2] [%]	% Inhibition of Specific Binding [3] [%]	% Inhibition of Specific Binding [4] [%]	% Inhibition of Specific Binding (D2S (h) (human), P14416) [%]	% Inhibition of Specific Binding [5] [%]	% Inhibition of Specific Binding [6] [%]	Binder
-5	6	-13	-2	7	-7	-8	2	CPPTQFC (here or on the partner: N-terminal hexanoyl (Hex); Cys1 and Cys7 cyclised through tMeBn carrying DOTA-AET; free C-terminal acid (-OH)) [Hex-[Cys(tMeBn(DOTA-AET))-Pro-Pro-Thr-Gln-Phe-Cys]-OH (3BP-3554)]
-3	-18	4	-8	12	15	-3	-9	CPPTQFCD (here or on the partner: N-terminal hexanoyl (Hex); Cys1 and Cys7 cyclised through tMeBn carrying DOTA-PP; C-terminal amide) [Hex-[Cys(tMeBn(DOTA-PP))-Pro-Pro-Thr-Gln-Phe-Cys]-Asp-NH2 (3BP-3407)]
